Reference: paper PMC7498317, “GapR binds DNA through dynamic opening of its tetrameric interface” (Nucleic Acids Research, 2020)

Tests used:
[1] = target: T1, GapR (Caulobacter crescentus, UniProt B8H4R9 1-89); test: ITC; ITC: 50 mM sodium phosphate pH 7.0, 200 mM NaCl, 4 C; 25 uM GapR tetramer in cell, 0.25 mM DNA injected; NMR: 0.1 mM tetramer, 0.02-0.1 mM DNA; details: protein: recombinant, tags: C-terminal His6 (pET-21a), chain copies: 4, blunt
T1 sequence: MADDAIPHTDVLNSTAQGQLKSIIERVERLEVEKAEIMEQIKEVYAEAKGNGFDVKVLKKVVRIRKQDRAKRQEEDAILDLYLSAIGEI

[2] = target: T1, GapR; test: ITC; netropsin-bound DNA; ITC: 50 mM sodium phosphate pH 7.0, 200 mM NaCl, 4 C; 25 uM GapR tetramer in cell, 0.25 mM DNA injected; NMR: 0.1 mM tetramer, 0.02-0.1 mM DNA; details: protein: recombinant; tags: C-terminal His6 (pET-21a); chain copies: 4; blunt
[3] = target: the molecule itself; test: cross-linking; 0.1 mM protein, EGS 0.5 and 1 mM, 50 mM sodium phosphate, 150 mM NaCl, pH 7.2, room temperature, 10 min; self-association
[4] = target: T2, GapR G87A (Caulobacter crescentus, UniProt B8H4R9 1-89, G87A); test: NMR (1H-15N HSQC titration); minor peaks disappear on DNA addition; ITC: 50 mM sodium phosphate pH 7.0, 200 mM NaCl, 4 C; 25 uM GapR tetramer in cell, 0.25 mM DNA injected; NMR: 0.1 mM tetramer, 0.02-0.1 mM DNA; details: protein: recombinant; tags: C-terminal His6 (pET-21a); chain copies: 4; blunt
T2 sequence: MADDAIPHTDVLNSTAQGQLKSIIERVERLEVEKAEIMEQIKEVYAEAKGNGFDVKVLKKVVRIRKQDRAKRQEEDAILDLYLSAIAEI

[5] = target: the molecule itself; test: SEC; Superdex 75, 50 mM sodium phosphate pH 7.0, 150 mM NaCl; apparent molecular weight from the elution volume; self-association
[6] = target: the molecule itself; test: SEC-MALS; Superdex-75 HR 10/30, 50 mM sodium phosphate pH 7.0, 150 mM NaCl, 25°C; free GapR 0.5, 1.0 and 2.0 mg/mL, GapR^ΔC17 2.0 mg/ml; self-association

B1: 5ApT (dsDNA)
DNA 1: CCGATATATATATCGC
DNA 2: GCGATATATATATCGG
B1 gave a Kd [1] of 12.3 ± 8.9 nM and a Kd [2] of 16.6 ± 4.5 nM.

B2: GapR (growth-associated A/T-binding protein involved in regulation), full length, residues 1-89 (natural protein, C. crescentus, UniProt B8H4R9 1-89, looked up)
chain: MADDAIPHTDVLNSTAQGQLKSIIERVERLEVEKAEIMEQIKEVYAEAKGNGFDVKVLKKVVRIRKQDRAKRQEEDAILDLYLSAIGEI
notes: GapR of Caulobacter crescentus, gene CCNA_03428, residues 1-89 (full length); theoretical monomer mass 11.2 kDa as printed; A selenomethionyl derivative was used for MAD phasing of the GapR/10A complex structure; 15N- or 13C-labelled for NMR; also called free GapR; full-length GapR; source: E. coli Rosetta (DE3), purified (Ni-NTA, size-exclusion chromatography on Superdex 75)
With B2 the “stoichiometry N” value [3] was 4.

B3: 10A (dsDNA)
DNA 1: CCGAAAAAAAAAACGC
DNA 2: GCGTTTTTTTTTTCGG
B3 was tested, and the Kd [1] was 11.6 ± 2.5 nM and the binding result [4] was “binds”.

B4: GapR^ΔC8 (residues 1-81) (domain or fragment, C. crescentus, UniProt B8H4R9 1-81, looked up)
chain: MADDAIPHTDVLNSTAQGQLKSIIERVERLEVEKAEIMEQIKEVYAEAKGNGFDVKVLKKVVRIRKQDRAKRQEEDAILDL
notes: GapR of Caulobacter crescentus, gene CCNA_03428, residues 1-81; also called C-terminal truncation mutant; source: E. coli Rosetta (DE3), purified (Ni-NTA, size-exclusion chromatography)
For B4, the “stoichiometry N” value [5] was 2.

B5: GapR^ΔC17 (residues 1-72) (domain or fragment, C. crescentus, UniProt B8H4R9 1-72, looked up)
chain: MADDAIPHTDVLNSTAQGQLKSIIERVERLEVEKAEIMEQIKEVYAEAKGNGFDVKVLKKVVRIRKQDRAKR
notes: GapR of Caulobacter crescentus, gene CCNA_03428, residues 1-72; theoretical dimer mass 18.6 kDa as printed; also called C-terminal truncation mutant; source: E. coli Rosetta (DE3), purified (Ni-NTA, size-exclusion chromatography)
For B5, the “stoichiometry N” value [6] was 2.

B6: 6CpG (dsDNA)
DNA 1: CGCGCGCGCGCG
DNA 2: CGCGCGCGCGCG
In the case of B6, the Kd ([1]; self-complementary) is reported as 118 ± 17 nM.

B7: seq2 (dsDNA)
DNA 1: CGTGTTTTCGG
DNA 2: CCGAAAACACG
In the case of B7, the Kd [1] is reported as 72 ± 19 nM.

B8: seq1 (dsDNA)
DNA 1: GCGAAATTGATCG
DNA 2: CGATCAATTTCGC
Binder B8 has a Kd [1] of 72 ± 24 nM.

B9: 11AT (dsDNA)
DNA 1: TTAAAATTAAA
DNA 2: TTTAATTTTAA
B9 gave a Kd [1] of 12.3 ± 4.5 nM.

B10: GapR^ΔN10 (residues 11-89) (domain or fragment, C. crescentus, UniProt B8H4R9 11-89, looked up)
chain: VLNSTAQGQLKSIIERVERLEVEKAEIMEQIKEVYAEAKGNGFDVKVLKKVVRIRKQDRAKRQEEDAILDLYLSAIGEI
notes: GapR of Caulobacter crescentus, gene CCNA_03428, residues 11-89; pET-28a(+) with a thrombin-cleavable N-terminal His6-tag; the tag was removed by thrombin; also called N-terminal truncation mutant; source: E. coli Rosetta (DE3), purified (Ni-NTA, thrombin cleavage, size-exclusion chromatography); not shown: His6, N-terminal, cleaved
B10: binds [5].
